Target: CPTX, biotinylated on a C-terminal Avitag (immobilised in SPR) (UniProt P23435)
Test: SPR

Kd: 4.5 µM
B1: mouse glutamate receptor A4 amino-terminal domain (domain or fragment)
chain: GAFPSSVQIGGLFIRNTDQEYTAFRLAIFLHNTSPNASEAPFNLVPHVDNIETANSFAVTNAFCSQYSRGVFAIFGLYDKRSVHTLTSFCSALHISLITPSFPTEGESQFVLQLRPSLRGALLSLLDHYEWNCFVFLYDTDRGYSILQAIMEKAGQNGWHVSAICVENFNDVSYRQLLEELDRRQEKKFVIDCEIERLQNILEQIVSVGKHVKGYHYIIANLGFKDISLERFIHGGANVTGFQLVDFNTPMVTKLMDRWKKLDQREYPGSETPPKYTSALTYDGVLVMAETFRSLRRQKIDISRRGNAGDCLANPAAPWGQGIDMERTLKQVRIQGLTGNVQFDHYGRRVNYTMDVFELKSTGPRKVGYWNDMDKLVLIQDAPTLGNDTAAIENRTVVVT

Source: article PMC7116145
